From patent US20150246947A1 (BAXALTA, published 2015)
“And” between values parts separate entries of the source, which are not always exact repeats. Identical values can stand only once. Like-named read-outs stand apart in the source and are kept apart here. Positions of bridges follow the written chain, without caps; N, C: chain ends.

T1: human Protein S (UniProt P07225 42-676)
T1 chain: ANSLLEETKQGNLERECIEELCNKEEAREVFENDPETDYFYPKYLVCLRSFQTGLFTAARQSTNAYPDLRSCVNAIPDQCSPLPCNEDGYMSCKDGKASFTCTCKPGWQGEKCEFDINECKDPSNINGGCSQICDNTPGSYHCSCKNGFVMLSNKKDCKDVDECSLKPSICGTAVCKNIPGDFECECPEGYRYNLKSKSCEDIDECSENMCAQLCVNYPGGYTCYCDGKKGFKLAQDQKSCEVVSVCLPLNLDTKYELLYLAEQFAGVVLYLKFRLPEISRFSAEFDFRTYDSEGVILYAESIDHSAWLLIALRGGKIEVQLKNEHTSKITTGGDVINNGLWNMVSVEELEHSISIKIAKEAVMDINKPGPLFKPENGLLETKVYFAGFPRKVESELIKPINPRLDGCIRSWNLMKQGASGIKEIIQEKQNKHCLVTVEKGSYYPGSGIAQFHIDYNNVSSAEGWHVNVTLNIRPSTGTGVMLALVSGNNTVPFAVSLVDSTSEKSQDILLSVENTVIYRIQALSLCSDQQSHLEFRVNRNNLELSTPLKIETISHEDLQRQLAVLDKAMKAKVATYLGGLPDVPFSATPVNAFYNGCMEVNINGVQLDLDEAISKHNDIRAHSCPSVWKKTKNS

B1: JBS3170 (peptide)
chain: CGLVSAGWYDYNCDHYREFT
B2: JBS3243 (peptide)
chain: Ac-EYYVSAGWYDYNNDTYNEFW-NH2
B3: JBS3215 (peptide)
chain: MEYYVSAGWYDYNTDTYYEFE
B4: JBS3181 (peptide)
chain: Ac-TGLVSAGWYDYNFDHYREF-NH2
B5: JBS3295 (peptide)
chain: Ac-DDEVSIGWYDYNTDEYVEFW-NH2
B6: JBS3162 (peptide)
chain: Ac-TCLVSAGWYDCYNFDHYREFT-NH2
modifications: disulfide 2-11
SMILES: CC(=O)N[C@H](C(=O)N[C@H]1CSSC[C@@H](C(=O)N[C@@H](Cc2ccc(O)cc2)C(=O)N[C@@H](CC(N)=O)C(=O)N[C@@H](Cc2ccccc2)C(=O)N[C@@H](CC(=O)O)C(=O)N[C@@H](Cc2c[nH]cn2)C(=O)N[C@@H](Cc2ccc(O)cc2)C(=O)N[C@@H](CCCNC(=N)N)C(=O)N[C@@H](CCC(=O)O)C(=O)N[C@@H](Cc2ccccc2)C(=O)N[C@H](C(N)=O)[C@@H](C)O)NC(=O)[C@H](CC(=O)O)NC(=O)[C@H](Cc2ccc(O)cc2)NC(=O)[C@H](Cc2c[nH]c3ccccc23)NC(=O)CNC(=O)[C@H](C)NC(=O)[C@H](CO)NC(=O)[C@H](C(C)C)NC(=O)[C@H](CC(C)C)NC1=O)[C@@H](C)O
B7: JBS2810 (peptide)
chain: Ac-TGLVSAGWYDYNFDHYMEFT-NH2
B8: JBS3251 (peptide)
chain: Ac-QYYVVAGWYDYNTDSYYEFD-NH2
B9: JBS3241 (peptide)
chain: Ac-EYYVSAGWYDYNNDIYLEFE-NH2
B10: JBS2885 (peptide)
chain: Ac-TGLVSAGWYDYNFDTYREFT-NH2
B11: JBS3220 (peptide)
chain: Ac-EYTVSAGWYDYNKDTYEEFK-NH2
B12: JBS3234 (peptide)
chain: Ac-EYYVSAGWYDYNADTYYEFE-NH2
B13: JBS3242 (peptide)
chain: Ac-EYYVSAGWHDYNKDIYFEFF-NH2
B14: JBS3245 (peptide)
chain: Ac-EYYVSAGWYDYNSDTYFEFI-NH2
B15: JBS2659 (peptide)
chain: Ac-TGHVSAGWYDYNSDHYREFT-NH2
B16: JBS2928 (peptide)
chain: Ac-YGLVSAGWYDYNFDHYREFT-NH2
B17: JBS3273 (peptide)
chain: Ac-SATVSAGWYDYNKDVYFEFE-NH2
B18: JBS3224 (peptide)
chain: MEYYVSAGWYDYNTDTYYEFE
B19: JBS3239 (peptide)
chain: Ac-EYYVSAGWYDTNNDRYYEFI-NH2
B20: JBS3157 (peptide)
chain: CGLVSAGWYDCYNFDHYREFT
B21: JBS3240 (peptide)
chain: Ac-EYYVSAGWYDYNNDIYYEFI-NH2
B22: JBS3169 (peptide)
chain: TGCLVSAGWYDYNCDHYREFT
B23: JBS3185 (peptide)
chain: Ac-SGLVSAGWYDYNFDSYREFT-NH2
B24: JBS3238 (peptide)
chain: Ac-EYYVSAGWYDYNTDRYYEFY-NH2
B25: JBS2713 (peptide)
chain: TGLVSAGWYDYNFDHYREFTC
B26: JBS3217 (peptide)
chain: Ac-EYYVSAGWYDYNDDKYYEFE-NH2
B27: JBS3168 (peptide)
chain: Ac-TGLCVSAGWYDYNCDHYREFT-NH2
modifications: disulfide 4-14
SMILES: CC(=O)N[C@H](C(=O)NCC(=O)N[C@@H](CC(C)C)C(=O)N[C@H]1CSSC[C@@H](C(=O)N[C@@H](CC(=O)O)C(=O)N[C@@H](Cc2c[nH]cn2)C(=O)N[C@@H](Cc2ccc(O)cc2)C(=O)N[C@@H](CCCNC(=N)N)C(=O)N[C@@H](CCC(=O)O)C(=O)N[C@@H](Cc2ccccc2)C(=O)N[C@H](C(N)=O)[C@@H](C)O)NC(=O)[C@H](CC(N)=O)NC(=O)[C@H](Cc2ccc(O)cc2)NC(=O)[C@H](CC(=O)O)NC(=O)[C@H](Cc2ccc(O)cc2)NC(=O)[C@H](Cc2c[nH]c3ccccc23)NC(=O)CNC(=O)[C@H](C)NC(=O)[C@H](CO)NC(=O)[C@H](C(C)C)NC1=O)[C@@H](C)O
B28: JBS2740 (peptide)
chain: Ac-TGLVEAGWYDYNFDHYREFT-NH2
B29: JBS3160 (peptide)
chain: Ac-CGLVSAGWYDYNFCDHYREFT-NH2
modifications: disulfide 1-14
SMILES: CC(=O)N[C@H]1CSSC[C@@H](C(=O)N[C@@H](CC(=O)O)C(=O)N[C@@H](Cc2c[nH]cn2)C(=O)N[C@@H](Cc2ccc(O)cc2)C(=O)N[C@@H](CCCNC(=N)N)C(=O)N[C@@H](CCC(=O)O)C(=O)N[C@@H](Cc2ccccc2)C(=O)N[C@H](C(N)=O)[C@@H](C)O)NC(=O)[C@H](Cc2ccccc2)NC(=O)[C@H](CC(N)=O)NC(=O)[C@H](Cc2ccc(O)cc2)NC(=O)[C@H](CC(=O)O)NC(=O)[C@H](Cc2ccc(O)cc2)NC(=O)[C@H](Cc2c[nH]c3ccccc23)NC(=O)CNC(=O)[C@H](C)NC(=O)[C@H](CO)NC(=O)[C@H](C(C)C)NC(=O)[C@H](CC(C)C)NC(=O)CNC1=O
B30: JBS3237 (peptide)
chain: Ac-EYYVSAGWYDYNTDKYYEFI-NH2
B31: JBS3180 (peptide)
chain: Ac-GLVSAGWYDYNFDHYREFT-NH2
B32: JBS3250 (peptide)
chain: Ac-TYYVSAGWYGYNNDRYYEFY-NH2
B33: JBS3246 (peptide)
chain: Ac-EYYVSAGWYDYEHDTYLEFY-NH2
B34: JBS3173 (peptide)
chain: Ac-TCLVSAGWYDYNFDCYREFT-NH2
modifications: disulfide 2-15 (inferred); not fully specified
B35: JBS2941 (peptide)
chain: Ac-TGLVSAGWYDYNFDHYYEFT-NH2
B36: JBS3182 (peptide)
chain: Ac-GLVSAGWYDYNFDHYREF-NH2
B37: JBS3247 (peptide)
chain: Ac-EYYVSAGWYNYEEDSYYEFE-NH2
B38: JBS3171 (peptide)
chain: Ac-TCLVSAGWYDYNCDHYREFT-NH2
modifications: disulfide 2-13
SMILES: CC(=O)N[C@H](C(=O)N[C@H]1CSSC[C@@H](C(=O)N[C@@H](CC(=O)O)C(=O)N[C@@H](Cc2c[nH]cn2)C(=O)N[C@@H](Cc2ccc(O)cc2)C(=O)N[C@@H](CCCNC(=N)N)C(=O)N[C@@H](CCC(=O)O)C(=O)N[C@@H](Cc2ccccc2)C(=O)N[C@H](C(N)=O)[C@@H](C)O)NC(=O)[C@H](CC(N)=O)NC(=O)[C@H](Cc2ccc(O)cc2)NC(=O)[C@H](CC(=O)O)NC(=O)[C@H](Cc2ccc(O)cc2)NC(=O)[C@H](Cc2c[nH]c3ccccc23)NC(=O)CNC(=O)[C@H](C)NC(=O)[C@H](CO)NC(=O)[C@H](C(C)C)NC(=O)[C@H](CC(C)C)NC1=O)[C@@H](C)O
B39: JBS3172 (peptide)
chain: CGLVSAGWYDYNFDCYREFT

What was measured:
human Protein S [1] = target: T1, human Protein S; assay: LANCE competition
In short: (§1)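 In this LANCE homogeneous time-resolved FRET competition assay, europium-labelled Protein S, ULight-labelled streptavidin and a biotinylated tracer peptide were combined with unlabelled test peptide titrated in three-fold steps. The 50 µl reactions held final concentrations of 10 nM Protein S, 100 nM streptavidin and 300 nM tracer, or 2 nM Protein S and 60 nM tracer on a Tecan F500. After 1 hour at room temperature, signals were read at Ex 340 nm and Em 665 nm. IC50 was determined by non-linear regression of the emission signals.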

human Protein S [2] = target: T1, human Protein S; assay: LANCE competition
In short: as §1

| Binder | IC50 (human Protein S [1]) [nM] | IC50 (human Protein S [2]) |
| --- | --- | --- |
| B1 | 206 | – |
| B2 | 1.3 | – |
| B3 | 0.8 | – |
| B4 | 9.5 | – |
| B5 | 14.6 | – |
| B6 | 1510 | – |
| B7 | – | 4.4 nM and 5.5 nM |
| B8 | 0.6 | – |
| B9 | 1.2 | – |
| B10 | – | 4.4 nM |
| B11 | 3.5 | – |
| B12 | 2.7 | – |
| B13 | 67.8 | – |
| B14 | 2 | – |
| B15 | – | 16.4 nM |
| B16 | 3.7 | – |
| B17 | 2.3 | – |
| B18 | 1.3 | – |
| B19 | 2 | – |
| B20 | 812 | – |

| Binder | IC50 (human Protein S [1]) [nM] | IC50 (human Protein S [2]) |
| --- | --- | --- |
| B21 | 2 | – |
| B22 | 544 | – |
| B23 | 7.2 | – |
| B24 | 1.3 | – |
| B25 | – | 20.1 nM |
| B26 | 1.3 | – |
| B27 | 604 | – |
| B28 | – | 16.4 nM |
| B29 | 981 | – |
| B30 | 1.5 | – |
| B31 | 9 | – |
| B32 | 22.7 | – |
| B33 | 2.2 | – |
| B34 | 208 | – |
| B35 | 1.4 | – |
| B36 | 20.9 | – |
| B37 | 1.9 | – |
| B38 | 336 | – |
| B39 | 55.2 | – |
